Reference: patent publication US6630345B2 (New York University, dated 2003)

Biological target: recombinant full-length calcium-independent receptor of α-latrotoxin (CIRL) expressed in COS cells (rat)
Sequence (O88917 other isoform, or with tags, fused parts or gaps limits assumed): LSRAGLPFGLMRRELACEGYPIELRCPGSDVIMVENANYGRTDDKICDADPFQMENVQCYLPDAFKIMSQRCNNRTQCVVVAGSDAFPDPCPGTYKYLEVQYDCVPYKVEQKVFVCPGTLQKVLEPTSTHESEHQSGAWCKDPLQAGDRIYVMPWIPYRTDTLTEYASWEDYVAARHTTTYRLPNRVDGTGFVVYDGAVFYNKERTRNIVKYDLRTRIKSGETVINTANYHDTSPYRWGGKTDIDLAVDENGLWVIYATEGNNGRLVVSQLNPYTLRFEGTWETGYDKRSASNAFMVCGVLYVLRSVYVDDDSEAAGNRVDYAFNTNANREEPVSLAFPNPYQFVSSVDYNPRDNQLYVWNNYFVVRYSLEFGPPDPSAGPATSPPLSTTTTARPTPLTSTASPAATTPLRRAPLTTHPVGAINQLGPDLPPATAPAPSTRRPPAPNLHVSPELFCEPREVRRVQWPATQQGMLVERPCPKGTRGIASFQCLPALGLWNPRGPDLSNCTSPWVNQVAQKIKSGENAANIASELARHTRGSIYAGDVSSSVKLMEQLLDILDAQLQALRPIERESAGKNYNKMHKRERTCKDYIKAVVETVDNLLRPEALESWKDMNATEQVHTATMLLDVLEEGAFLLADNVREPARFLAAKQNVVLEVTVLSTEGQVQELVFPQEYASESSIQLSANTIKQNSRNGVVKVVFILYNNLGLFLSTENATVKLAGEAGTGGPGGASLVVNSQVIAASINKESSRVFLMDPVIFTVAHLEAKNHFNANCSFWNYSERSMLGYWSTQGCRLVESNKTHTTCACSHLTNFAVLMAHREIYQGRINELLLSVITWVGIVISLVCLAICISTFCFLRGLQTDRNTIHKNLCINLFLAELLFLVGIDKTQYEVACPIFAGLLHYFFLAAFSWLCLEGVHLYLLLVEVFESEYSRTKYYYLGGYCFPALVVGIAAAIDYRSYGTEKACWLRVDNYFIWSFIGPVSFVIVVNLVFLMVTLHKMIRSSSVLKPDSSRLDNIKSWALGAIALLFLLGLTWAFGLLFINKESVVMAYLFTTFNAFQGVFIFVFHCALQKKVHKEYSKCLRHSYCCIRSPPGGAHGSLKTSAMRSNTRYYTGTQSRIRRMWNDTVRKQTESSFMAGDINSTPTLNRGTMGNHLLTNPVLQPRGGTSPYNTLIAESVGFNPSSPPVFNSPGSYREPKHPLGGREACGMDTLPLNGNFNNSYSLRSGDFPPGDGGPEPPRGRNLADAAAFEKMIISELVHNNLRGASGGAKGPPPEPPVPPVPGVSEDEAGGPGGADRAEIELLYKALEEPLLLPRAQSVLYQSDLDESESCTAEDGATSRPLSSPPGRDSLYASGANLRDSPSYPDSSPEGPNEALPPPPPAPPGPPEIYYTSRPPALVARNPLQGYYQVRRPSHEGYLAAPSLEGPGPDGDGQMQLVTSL

B1: α-latrotoxin (ligand)
chain: EGEDLTLEEKAEICSELELQQKYVDIASNIIGDLSSLPIAGKIAGTIAAAAMTATHVASGRLDIEQTLLGCSDLPFDQIKEVLENRFNEIDRKLDSHSAALEEITKLVEKSISVVEKTRKQMNKRFDEVMKSIQDAKVSPIISKINNFARYFDTEKERIRGLKLNDYILKLEEPNGILLHFKESRTPTDDSLQAPLFSIIEEGYAVPKSIDDELAFKVLYALLYGTQTYVSVMFFLLEQYSFLANHYYEKGYLEKYDEYFNSLNNVFLDFKSSLVGTGTSNNEGLLDRVLQVLMTVKNSEFLGLEKNGVDEMLNEKINLFNKIKEEIEGKQKMTLSETPENFAQISFDKDITTPIGDWRDGREVRYAVQYASETLFSKISHWSDPVSVREKACPTLRMPVDQTRRNVLVFRKFDSSKPQLVGEITPYLSNFIDIDRDLYNAASNPDSAVGFKEFTKLNYDGANIRATFDHGRTVFHAAAKSGNDKIMFGLTFLAKSTELNQPDKKGYTPIHVAADSGNAGIVNLLIQRGVSINSKTYHFLQTPLHLAAQRGFVTTFQRLMESPEININERDKDGFTPLHYAIRGGERILEAFLNQISIDVNAKSNTGLTPFHLAIIKNDWPVASTLLGSKKVDINAVDENNITALHYAAILGYLETTKQLINLKEINANVVSSPGLLSALHYAILYKHDDVASFLMRSSNVNVNLKALGGITPLHLAVIQGRKQILSLMFDIGVNIEQKTDEKYTPLHLAAMSKYPELIQILLDQGSNFEAKTNSGATPLHLATFKGKSQAALILLNNEVNWRDTDENGQMPIHGAAMTGLLDVAQAIISIDATVVDIEDKNSDTPLNLAAQNSHIDVIKYFIDQGADINTRNKKGLAPLLAFSKKGNLDMVKYLFDKNANVYIADNDGMNFFYYAVQNGHLNIVKYAMSEKDKFEWSNTDNNRRDECPNEECAISHFAVCDAVQFDRIEIVKYFVGTLGNFAICGPLHQAARYGHLDIVKYLVEEEFLSVDGSKTDTPLCYASENGHFTVVQYLVSNGAKVNHDCGNGMTAIDKAITKNHLQVVQFLAANGVDFRRKNSRGTTPFLTAVAENALHIAEYLIREKRQDININEQNVDKDTALHLAVYYKNLQMIKLLIKYGIDVTIRNAYDKTALDIAIDAKFSNIVEYLKTKSGKFRR
modifications: radioactively labeled with 125I by chloramine T procedure in the binding and immunoprecipitation assays; coupled to Sepharose in the affinity experiments
  Kd: 160 pM
